In article PMC3601965, “Conformational Change-Induced Repeat Domain Expansion Regulates Rap Phosphatase Quorum-Sensing Signal Receptors” (PLoS Biology, 2013):
Substitutions are numbered along the chain they refer to.

Legend:
RapJ-R105A,Y161F = target: T1, RapJ-R105A,Y161F (B. subtilis, UniProt O34327 1-373, R105A | Y161F); assay: SEC + other: MALDI-TOF and MALDI-TOF/TOF mass spectrometry; 8.5 mM PhrC mixed with 425 µM RapJ (wild type or R105A,Y161F), Superdex 200 16/70 in 20 mM Tris-HCl pH 8.0, 50 mM KCl, 5 mM MgCl2, 5 mM DTT; peak fractions analysed for PhrC (m/z 593.27); PhrC alone as control; settings: both partners purified
T1 construct: RapJ, Bacillus subtilis, double mutant R105A,Y161F; same construct limits as wild-type RapJ; source: overexpressed and purified as for X-ray crystallography (E. coli; after the SourceQ step dialysed against buffer H); not shown: His, N-terminal, cleaved; SUMO, N-terminal, cleaved
T1 sequence (looked up): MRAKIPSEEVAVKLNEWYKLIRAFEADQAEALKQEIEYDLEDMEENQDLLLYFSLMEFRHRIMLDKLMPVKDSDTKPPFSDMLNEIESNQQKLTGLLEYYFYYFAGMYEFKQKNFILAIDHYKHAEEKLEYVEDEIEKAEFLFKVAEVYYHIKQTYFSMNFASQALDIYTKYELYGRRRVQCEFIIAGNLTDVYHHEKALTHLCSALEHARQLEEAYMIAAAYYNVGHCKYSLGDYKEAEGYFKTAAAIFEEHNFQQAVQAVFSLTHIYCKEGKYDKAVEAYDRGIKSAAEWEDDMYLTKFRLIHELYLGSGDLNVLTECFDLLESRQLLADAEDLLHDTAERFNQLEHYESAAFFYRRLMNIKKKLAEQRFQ

RapJ = target: T2, RapJ (B. subtilis strain 168, UniProt O34327 1-373); assay: as above; settings: both partners purified
T2 construct: RapJ, Bacillus subtilis strain 168, amplified from genomic DNA; no heterologous residues after removal of His-Sumo; Phases came from selenomethionyl RapJ crystals; In the functional rows the in vivo RapJ was expressed in B. subtilis VP068 from pDRJ1 (IS75 DNA); also called response regulator aspartate phosphatase J; wild-type RapJ; source: E. coli BL21(DE3), purified (His-60 Ni resin, SUMO …)
T2 sequence (looked up): T1 sequence (looked up) with A105R, F161Y

B1: PhrC (peptide)
peptide: ERGMT
notes: mature PhrC pentapeptide (NH2-ERGMT-COOH), cut from the C-terminus of pro-PhrC, Bacillus subtilis; also called CSF; source: synthetic peptide, bought: LifeTein, 95% purity
Does B1 bind (RapJ-R105A,Y161F)?
Result: binds

Does B1 bind (RapJ)?
Result: binds
